Sequences and labels used below:
B1: glmS ribozyme (parent)
chain: AUAAAAGCGCCAGAACUACAGAAAUGUAGUUGACGAGGAGGAGGUUUAUCGAAUUUUCGGCGGAUGCCUCCAAA

± gives the standard error. For some assays here: Fewer inactive variants are shown than the library holds. Where only a bound is given, the exact number is not on record here.

Holding throughout (conditions): with glucosamine-6-phosphate
The variants in series [1] derive from B1. Put plainly: kcat; higher = faster cleavage; RNA array. In a few lines: (§1)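 kcat and KM were obtained from weighted Michaelis–Menten fits across concentrations of kobs values. Those came from one- or two-exponential decay fits to per-tile medians normalised to baseline and to non-cleaving reference variants. The variants were barcoded ribozymes transcribed in situ by E. coli RNA polymerase on sequenced MiSeq chips and tracked through a hybridised Cy3 probe at 37 °C, with 40 μM to 10 mM glucosamine-6-phosphate in HEPES/KCl/Mg(OAc)2 buffer flowed in.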

Series [2] covers variants of B1. Put plainly: KM; higher = weaker cofactor use; RNA array. In a few lines: as §1
Variants of B1 are the subject of series [3]. Briefly: self-cleavage kobs at 640 uM GlcN6P; higher = faster cleavage; RNA array. The essentials:
as §1

In series [4] the parent is B1. Put plainly: self-cleavage kobs at 2500 uM GlcN6P; higher = faster cleavage; RNA array. In a few lines: as §1
In series [5] the parent is B1. Briefly: self-cleavage kobs at 10000 uM GlcN6P; higher = faster cleavage; RNA array. The essentials: as §1
The variants in series [6] derive from B1. Briefly: self-cleavage kobs at 160 uM GlcN6P; higher = faster cleavage; RNA array. In a few lines: as §1
The variants in series [7] derive from B1. Briefly: self-cleavage kobs at 40 uM GlcN6P; higher = faster cleavage; RNA array. The essentials:
as §1

Regarding AUAAAAGCGCCUGAACUACAGAAAUGUAGUUGACGAGGAGGAGGUUUAUCGAAUUUUCGACGGAUGCCUCCAAA, in series [1], the kcat is 8.33e-05 ± 8e-06 s⁻¹. Further, the KM in series [2] is 2040 ± 700 µM. Besides, the “self-cleavage kobs at 640 uM GlcN6P” value in series [3] was found to be 2.88e-05 ± 1.4e-05 s⁻¹. In addition, the “self-cleavage kobs at 2500 uM GlcN6P” value in series [4] is 4.12e-05 ± 1e-05 s⁻¹. Moreover, the “self-cleavage kobs at 10000 uM GlcN6P” value in series [5] came to 7.02e-05 ± 8.4e-06 s⁻¹.
The like results for AUAAAAGCGCCAGAACUACAGAAAUGUAGUUGACGAGGAGGAGAUUUAUCGAAAUUUCGGCGGAUGCCUCCAAA were, in that order, 0.000692 ± 0.00012 s⁻¹, 2530 ± 870 µM, 0.000132 ± 3.9e-05 s⁻¹, 0.00051 ± 0.0002 s⁻¹ and 0.000538 ± 0.00011 s⁻¹.
In the case of AUAAAAGCGCUAGAACUACAGAAAUGUAGUUGACGAGGAUGAGGUUUAUCGAAUUUUCGGCGGAUGCCUUCAAA, the kcat in series [1] stood at 0.000108 ± 1.1e-06 s⁻¹. The KM in series [2] was 1100 ± 48 µM. Besides, the “self-cleavage kobs at 2500 uM GlcN6P” value in series [4] was 7.62e-05 ± 2.5e-05 s⁻¹. For the same variant, the “self-cleavage kobs at 10000 uM GlcN6P” value in series [5] came out at 9.73e-05 ± 2e-05 s⁻¹.
As to AUAAAAGCGCCACAACUACAGAAAUGUAGUGGACGAGGAGGAGGUUUAUCGAAUUUUCGGCGGAUGCCUUCAAA, in series [1], the kcat was 0.000159 ± 3.6e-05 s⁻¹. The “self-cleavage kobs at 640 uM GlcN6P” value in series [3] came out at 4.2e-05 ± 1.9e-05 s⁻¹. Also, the “self-cleavage kobs at 2500 uM GlcN6P” value in series [4] is 0.000148 ± 3.9e-05 s⁻¹. Further, in series [5], the “self-cleavage kobs at 10000 uM GlcN6P” value came out at 0.000131 ± 2.7e-05 s⁻¹.
Take AUAAAAGCGCCAGAACUACAGAAAUGUAGUUGACGAGGAGUAGGUUUAUCGAAUUUUCGGCGGAUGCCUCAAAA: the kcat in series [1] is 0.000252 ± 2.1e-05 s⁻¹. In series [2], the KM was determined as 604 ± 120 µM. Further, the “self-cleavage kobs at 160 uM GlcN6P” value in series [6] amounted to 5.27e-05 ± 9.4e-06 s⁻¹. Moreover, in series [3], the “self-cleavage kobs at 640 uM GlcN6P” value was 0.000128 ± 1.2e-05 s⁻¹. Moreover, in series [4], the “self-cleavage kobs at 2500 uM GlcN6P” value is 0.000235 ± 2.8e-05 s⁻¹. Moreover, the “self-cleavage kobs at 10000 uM GlcN6P” value in series [5] stood at 0.000219 ± 2.8e-05 s⁻¹.
As to AUAAAAGCGCCAGAACUACAGAAAUGUAGUUGACGAGGAGGAGGUUGAUCCAAUUUCCGGCGGAUGCUUCCAAA, the kcat in series [1] turned out to be 1.54e-05 ± 3.7e-06 s⁻¹. In addition, the “self-cleavage kobs at 40 uM GlcN6P” value in series [7] is below 1e-05 s⁻¹.
For AUAAAAGCGCCGGAACUACAGAAAUGUAGUUGACGAGGAGGAGGUUUAUCGAAUUCUCGGCGGAUGCCUCCAAA, the catalytic constant (kcat) in series [1] is 0.000482 ± 5.2e-05 s⁻¹. The KM in series [2] turned out to be 9850 ± 1600 µM. Also, in series [3], the “self-cleavage kobs at 640 uM GlcN6P” value was determined as 3.18e-05 ± 1.4e-05 s⁻¹. For the same variant, the “self-cleavage kobs at 2500 uM GlcN6P” value in series [4] worked out at 9.57e-05 ± 1.7e-05 s⁻¹. In series [5], the “self-cleavage kobs at 10000 uM GlcN6P” value was determined as 0.000244 ± 3.4e-05 s⁻¹.
Turning to AUAAAAGCGCCAGAACUACAGAAAUGUAGUUGACGAGGAGGAGGUUUAUCGAAUUUACGGCGGAUACCUCCAAA, the kcat in series [1] came to 0.000171 ± 2.8e-05 s⁻¹. The KM in series [2] is 4040 ± 1400 µM. Also, in series [4], the “self-cleavage kobs at 2500 uM GlcN6P” value amounted to 6.97e-05 ± 2.3e-05 s⁻¹. The “self-cleavage kobs at 10000 uM GlcN6P” value in series [5] was 0.00012 ± 3.2e-05 s⁻¹.
For AUAAAAGCGCCAGAACUACAGAAAUGUAGUUGACGAGGAGGUGGUUUAUCGAAUUUUCGGCGGAUGCGUCCAAA, the kcat in series [1] came out at 1.72e-05 ± 6.1e-06 s⁻¹.
Consider AUAAACGCGCCAGAACUACAGAAAUGUAAUUGACGAGGAGGAGGUUUAUCGAAUUUUCGGCGGAUGCCUCCAAA, for which the kcat in series [1] was below 1e-05 s⁻¹. Moreover, the “self-cleavage kobs at 40 uM GlcN6P” value in series [7] is below 1e-05 s⁻¹.
Take AUAAAAGCGCCAGAACUACAGAAAUGUAGUUGACGAGGAGGAGGUUGCUCGAAUUUUCGGCGGAUGCCUCCAAA: the kcat in series [1] worked out at 0.000154 ± 1.4e-05 s⁻¹. The KM in series [2] worked out at 2250 ± 640 µM. Besides, the “self-cleavage kobs at 40 uM GlcN6P” value in series [7] was below 1e-05 s⁻¹. In series [4], the “self-cleavage kobs at 2500 uM GlcN6P” value turned out to be 9.31e-05 ± 3e-05 s⁻¹. In addition, the “self-cleavage kobs at 10000 uM GlcN6P” value in series [5] amounted to 0.000124 ± 1.9e-05 s⁻¹.
Consider AUAAAAGCGCCAGGACUACAGAAAUGUAGUUGACGAGGAGCAGGUUUAUCGAAUUUUCGGCGGAUGCCUCCAAA, for which the kcat in series [1] was found to be 0.00141 ± 0.00048 s⁻¹. Also, the “self-cleavage kobs at 40 uM GlcN6P” value in series [7] worked out at 4.74e-05 ± 9.7e-06 s⁻¹. The “self-cleavage kobs at 160 uM GlcN6P” value in series [6] came to 4.38e-05 ± 1.7e-05 s⁻¹. Moreover, in series [3], the “self-cleavage kobs at 640 uM GlcN6P” value was 0.00022 ± 5.1e-05 s⁻¹. Also, the “self-cleavage kobs at 2500 uM GlcN6P” value in series [4] turned out to be 0.000737 ± 0.00013 s⁻¹. The “self-cleavage kobs at 10000 uM GlcN6P” value in series [5] worked out at 0.00105 ± 0.00013 s⁻¹.
In the case of AUAAAAGCGCCAGAACUACAGAAAUGUAGUCGACGAGGAUGAGGUUAAUCGAAUUUUCGGCGGAUGCCUCCAAA, the turnover number (kcat) in series [1] was 0.000144 ± 4.5e-05 s⁻¹. In addition, the “self-cleavage kobs at 2500 uM GlcN6P” value in series [4] came to 0.000154 ± 4.5e-05 s⁻¹. For the same variant, the “self-cleavage kobs at 10000 uM GlcN6P” value in series [5] was 0.000116 ± 2.2e-05 s⁻¹.
For AUAAAAGCGCCAGAGCUACAGAAAUGUAGUUGCCGAGGAGGAGGUUUAUCGAAUUUUCGGCGGAUGCCUCCAAA, in series [1], the kcat was found to be 0.000368 ± 3.1e-05 s⁻¹. Also, in series [2], the KM turned out to be 2210 ± 330 µM. In addition, in series [3], the “self-cleavage kobs at 640 uM GlcN6P” value is 8.06e-05 ± 9.8e-06 s⁻¹. The “self-cleavage kobs at 2500 uM GlcN6P” value in series [4] came out at 0.000213 ± 3e-05 s⁻¹. In addition, the “self-cleavage kobs at 10000 uM GlcN6P” value in series [5] is 0.00029 ± 4.2e-05 s⁻¹.
In the same order, the values of AUAAAAGCGCCAGAAGUACAGAAAUGUAGUUGACGAGGAGGAGGUUUAUCGAAUUUUCGGCGGAUGCCUCAAAA are 0.000641 ± 0.00015 s⁻¹, 2900 ± 1000 µM, 0.000111 ± 1.9e-05 s⁻¹, 0.000462 ± 0.00011 s⁻¹ and 0.000465 ± 8.7e-05 s⁻¹.
Consider AUAAAAGCGCCAGAACUACAGAAAUGUAGUUGACGAGGAGCAGGUUUAUCGAAUUUUCGGCGGAUCCCUCCAAA, for which the kcat in series [1] is 1.55e-05 ± 2.4e-06 s⁻¹. Further, in series [7], the “self-cleavage kobs at 40 uM GlcN6P” value was below 1e-05 s⁻¹. In series [3], the “self-cleavage kobs at 640 uM GlcN6P” value was below 1e-05 s⁻¹.
As to AUAAAAGCGCCAUAAUUACAGAAAUGUAGUUGACGAGGAGGAGGUUUAUCGAAUUUUCGGCGGAUGCCUCCAAA, the kcat in series [1] was 0.00286 ± 0.00057 s⁻¹. In series [2], the Michaelis-Menten constant (KM) is 3430 ± 1000 µM. Further, the “self-cleavage kobs at 40 uM GlcN6P” value in series [7] turned out to be 4.83e-05 ± 1.1e-05 s⁻¹. Also, the “self-cleavage kobs at 160 uM GlcN6P” value in series [6] was found to be 0.000115 ± 2.9e-05 s⁻¹. For the same variant, in series [3], the “self-cleavage kobs at 640 uM GlcN6P” value turned out to be 0.0004 ± 6.9e-05 s⁻¹. In series [4], the “self-cleavage kobs at 2500 uM GlcN6P” value worked out at 0.00139 ± 0.00026 s⁻¹. Moreover, the “self-cleavage kobs at 10000 uM GlcN6P” value in series [5] came out at 0.0021 ± 0.0003 s⁻¹.
With AUAAACGCGCCAGAACUACAGAAAUGUAGUUGACGAGGAGGAGGUUUAUCGAAUUUUCGGCGGAAGCCUCCAAA, the kcat in series [1] came out at 1.38e-05 ± 2.5e-07 s⁻¹. Moreover, the KM in series [2] came out at 3180 ± 190 µM.

The values above are taken from the supplement of paper PMC7125110.
